Article PMC8172837
Where “and” joins values, the source holds several entries; their conditions need not be identical. Equal values may be shown once. Blank lines part the entries; values can stand above or below the substance they belong to.

What was measured:
[1] = target: Aβ in the dimer and trimer bands of the culture media of C99 transfected CHO cells (isoform not determined) (human); assay: SDS-PAGE and western blot of oligomer bands; CHO cell lysates (4% SDS lysis buffer, heated 10 min at 70 °C with 50 mM DTT) and lyophilised culture media 48 h after transfection; 4-12% NuPAGE bis-tris gels; detected with anti-Aβ W0-2
[2] = target: C99-derived hexameric Aβ42 (cell-derived amyloid-β 42 from CHO cells transfected with C99) (human) (UniProt P05067); assay: as above
[3] = target: C99-derived hexameric Aβ42 (cell-derived amyloid-β 42 from CHO cells transfected with C99) (human) (UniProt P05067); assay: GELFrEE fractionation by size and western blot; Aβ immunoprecipitated with W0-2 from media, boiled at 95 °C with DTT, separated on the GELFrEE 8100 system; fractions blotted with W0-2; hexamer in fraction 5
[4] = target: Hexameric Aβ from CHO cells transfected with C99 carrying the Arctic (E22G) FAD mutation (human); assay: SDS-PAGE and western blot of oligomer bands; CHO cell lysates (4% SDS lysis buffer, heated 10 min at 70 °C with 50 mM DTT) and lyophilised culture media 48 h after transfection; 4-12% NuPAGE bis-tris gels; detected with anti-Aβ W0-2
[5] = target: Hexameric Aβ from CHO cells transfected with C99 carrying the Dutch (E22Q) FAD mutation (human); assay: as above
[6] = target: Hexameric Aβ from CHO cells transfected with C99 carrying the Flemish (A21G) FAD mutation (human); assay: as above
[7] = target: Hexameric Aβ from CHO cells transfected with C99 carrying the Iowa (D23N) FAD mutation (human); assay: as above
[8] = target: Hexameric Aβ from CHO cells transfected with C99 carrying the Italian (E22K) FAD mutation (human); assay: as above
[9] = target: vC42, assembly-impaired variant of Aβ42 (F19S, G37D) from transfected CHO cells (human); assay: as above

stoichiometry N [1]: 2 and 3
Substance: Aβ in the dimer and trimer bands of the culture media of C99 transfected CHO cells (isoform not determined) (peptide)

stoichiometry N [2]: 6 | stoichiometry N [3]: 6
Substance: C99-derived hexameric Aβ42 (cell-derived amyloid-β 42 from CHO cells transfected with C99) (from UniProt P05067 672-770) (peptide)

stoichiometry N [4]: 6
Substance: Hexameric Aβ from CHO cells transfected with C99 carrying the Arctic (E22G) FAD mutation (peptide)

stoichiometry N [5]: 6
Substance: Hexameric Aβ from CHO cells transfected with C99 carrying the Dutch (E22Q) FAD mutation (peptide)

stoichiometry N [6]: 6
Substance: Hexameric Aβ from CHO cells transfected with C99 carrying the Flemish (A21G) FAD mutation (peptide)

stoichiometry N [7]: 6
Substance: Hexameric Aβ from CHO cells transfected with C99 carrying the Iowa (D23N) FAD mutation (peptide)

stoichiometry N [8]: 6
Substance: Hexameric Aβ from CHO cells transfected with C99 carrying the Italian (E22K) FAD mutation (peptide)

stoichiometry N [9]: 2 and 3
Substance: vC42, assembly-impaired variant of Aβ42 (F19S, G37D) from transfected CHO cells (peptide)
